Results published in paper PMC2806001, “Identification of Peroxiredoxin 1 as a novel interaction partner for the lifespan regulator protein p66Shc” (Aging, 2009).
“And” between values parts separate entries of the source, which are not always exact repeats. Equal values may be shown once.

B1: p66CH2CB WT (N-terminal domains CH2 and CB of p66Shc, residues 1-150) (domain or fragment, UniProt P29353-1 1-150, looked up)
chain: MDLLPPKPKYNPLRNESLSSLEEGASGSTPPEELPSPSASSLGPILPPLPGDDSPTTLCSFFPRMSNLRLANPAGGRPGSKGEPGRAADDGEGIVGAAMPDSGPLPLLQDMNKLSGGGGRRTRVEGGQLGGEEWTRHGSFVNKPTRGWLH
notes: p66Shc (largest polypeptide of the shcA locus), residues 1-150 (CH2 and CB domains); Exists as a reduced dimer and an oxidised, disulfide-bridged tetramer; used as a mixture or as isolated states; also called p66Shc N-terminal domain; source: E. coli BL21(DE3)Rosetta2, purified (Talon resin, size exclusion on superose 12)

Columns and labels:
[1] = target: B1; test: native gel or EMSA; BN-PAGE of purified recombinant proteins incubated for 1 hour at room temperature (20 μg p66CH2CB with 40 μg Prx1 WT or 20 μg Prx1-Cys83Ser); bands cut out and separated in a second, denaturing SDS-PAGE dimension; conditions: both partners purified
[2] = target: the molecule itself; test: as above
[3] = target: the molecule itself; test: native gel or EMSA; BN-PAGE; 15 μg p66CH2CB with 30 μg decameric Prx1-Cys52Ser and 5/10/20 μg Trx1 in the presence of 3 mM EDTA
[4] = target: the molecule itself; test: SEC; oligomeric states separated on a superose 12 column in 20 mM Tris pH 7.8 + 150 mM NaCl

Row | Binder | stoichiometry N [2] | stoichiometry N [4] | other results
1 | Peroxiredoxin 1 (Prx1) WT, recombinant (enzyme, mouse, UniProt P35700 1-199, looked up, Peroxiredoxin 1, gene PCR-amplified from mouse colon cDNA, cloned into pET151/D-Topo; Mainly a decamer (five dimers) on the BN-gel; also called decameric Prx1; source: E. coli BL21(DE3)Rosetta2, purified (Talon resin, size exclusion on superose 12); copies: 10) MSSGNAKIGYPAPNFKATAVMPDGQFKDISLSEYKGKYVVFFFYPLDFTFVCPTEIIAFSDRADEFKKLNCQVIGASVDSHFCHLAWINTPKKQGGLGPMNIPLISDPKRTIAQDYGVLKADEGISFRGLFIIDDKGILRQITINDLPVGRSVDEIIRLVQAFQFTDKHGEVCPAGWKPGSDTIKPDVNKSKEYFSKQK |  |  | stoichiometry N [1]: 1
2 | Prx1-Cys83Ser (enzyme, mouse, UniProt P35700 1-199, looked up, Peroxiredoxin 1 from mouse colon cDNA in pET151/D-Topo, Cys83Ser; Constitutively dimeric; also called Cys83Ser regulatory mutant; dimeric Prx1-Cys83Ser mutant; source: E. coli BL21(DE3)Rosetta2, purified (Talon resin, size exclusion on superose 12)) MSSGNAKIGYPAPNFKATAVMPDGQFKDISLSEYKGKYVVFFFYPLDFTFVCPTEIIAFSDRADEFKKLNCQVIGASVDSHFSHLAWINTPKKQGGLGPMNIPLISDPKRTIAQDYGVLKADEGISFRGLFIIDDKGILRQITINDLPVGRSVDEIIRLVQAFQFTDKHGEVCPAGWKPGSDTIKPDVNKSKEYFSKQK | 2 |  | 
3 | Prx1-Cys52Ser (enzyme, mouse, UniProt P35700 1-199, looked up, Peroxiredoxin 1 from mouse colon cDNA in pET151/D-Topo, Cys52Ser (peroxidasic cysteine); also called Prx1-Cys52Ser active site mutant; source: E. coli BL21(DE3)Rosetta2, purified (Talon resin, size exclusion on superose 12); copies: 10) MSSGNAKIGYPAPNFKATAVMPDGQFKDISLSEYKGKYVVFFFYPLDFTFVSPTEIIAFSDRADEFKKLNCQVIGASVDSHFCHLAWINTPKKQGGLGPMNIPLISDPKRTIAQDYGVLKADEGISFRGLFIIDDKGILRQITINDLPVGRSVDEIIRLVQAFQFTDKHGEVCPAGWKPGSDTIKPDVNKSKEYFSKQK |  |  | stoichiometry N [3]: 10
4 | B1 | 4 | 2 | 
5 | p66CH2CB-Ser36Asp (domain or fragment, UniProt P29353 1-150, looked up, p66Shc, residues 1-150 (CH2 and CB domains), Ser36Asp phosphomimetic; Dimer and tetramer forms were both used; also called Ser36Asp mutant; p66CH2CB-Ser36Asp mutant simulating Ser36 phosphorylation; source: E. coli BL21(DE3)Rosetta2, purified (Talon resin, size exclusion on superose 12)) MDLLPPKPKYNPLRNESLSSLEEGASGSTPPEELPDPSASSLGPILPPLPGDDSPTTLCSFFPRMSNLRLANPAGGRPGSKGEPGRAADDGEGIVGAAMPDSGPLPLLQDMNKLSGGGGRRTRVEGGQLGGEEWTRHGSFVNKPTRGWLH |  | 2 and 4 | 
